{
  "source": "paper PMC9122601",
  "about": "“A widespread family of WYL-domain transcriptional regulators co-localizes with diverse phage defence systems and islands”",
  "binders": {"B1": {"name": "WT IR1-IR2 probe (R7, R-BOX1) (dsDNA)", "DNA 1": "GACGACTTGTTGATACTATGAAACCTACTGAAAAACAGTAGGTTGCTTGATGGCATTCAATCGATGGCTTAAGCTTTTGTCAGTGCGCA", "DNA 2": "TGCGCACTGACAAAAGCTTAAGCCATCGATTGAATGCCATCAAGCAACCTACTGTTTTTCAGTAGGTTTCATAGTATCAACAAGTCGTC"}},
  "target": "T1, His6-BrxR-R17A (Escherichia fergusonii (plasmid pEFER), UniProt B7L3Y3 14-308, R30A)",
  "T1 sequence": "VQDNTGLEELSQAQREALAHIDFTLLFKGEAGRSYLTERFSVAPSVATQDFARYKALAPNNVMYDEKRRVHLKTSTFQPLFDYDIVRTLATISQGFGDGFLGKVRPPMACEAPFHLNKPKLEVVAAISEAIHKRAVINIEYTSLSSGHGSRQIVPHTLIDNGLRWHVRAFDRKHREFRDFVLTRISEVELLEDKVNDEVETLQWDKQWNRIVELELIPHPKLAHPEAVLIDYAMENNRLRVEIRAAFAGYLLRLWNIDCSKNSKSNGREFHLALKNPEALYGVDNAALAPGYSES",
  "assay": "EMSA; only non-specific binding at high protein; EMSA: 10 mM Tris-HCl pH 7.9, 150 mM KCl, 0.5 mM EDTA, 0.2 mM DTT, 0.1% Triton X-100, 13% glycerol (1x of 5x buffer), 1 ug poly(dI-dC) per 10 ul, 2500 fmol probe, 25 C 30 min; 7% native PAGE in 0.5x TBE",
  "settings": "protein: recombinant; tags: N-terminal His6; chain copies: 2; label: 5' 6-FAM on reverse strand (primer TRB1068); blunt",
  "data": [
    {"binder": "B1", "values": [
      {"measurement": "binding result", "value": "no binding"}
    ]}
  ]
}
